In patent US20240026407A1, “MODIFICATION OF SAPONINS” (GLAXOSMITHKLINE BIOLOGICALS SA, priority 2020, published 2024):
Where a chain is given by its changes, count along the chain named. Numbers in names are those of the source. Each block holds one molecule with its values, some of them ahead of it.

Experiments:
[1] = Example 10: derhamnosylation of saponins in crude bark extract (50%) using WT and engineered rhamnosidases R1 to R5; type: biochemical, Quillaja saponaria; details: 50% CBE, 35 degC; for % Right Peak: starting CBE 26; for % Left Peak: starting CBE 30; for % Middle Peak: starting CBE 44
Method: Lyophilised powders from clarified cell lysate expressing glucosidases (from Example 8 WT glucosidase and engineered glucosidase polypeptides G1 to G5) and rhamnosidases (from Example 9 WT rhamnosidase and engineered rhamnosidase polypeptides R1 to R5) were dissolved in 200 mM sodium acetate aqueous solution at pH 5.8 to prepare the enzyme solutions at 4 fold the final reaction concentration as shown in Tables 19 and 20.
Each rhamnosidase solution was combined with an equal volume of 200 mM sodium acetate aqueous solution at pH 5.8 and separately with an equal volume of 200 mM sodium acetate aqueous solution at pH 5.8 containing 2 mg/ml glucosidase G5. This is a sufficient loading of glucosidase to effect complete hydrolysis of the relevant glucose moiety within 4 hours.
CBE was adjusted to pH of 6.0 to 6.2 with 2M sodium hydroxide and an equal volume added to the enzyme solution to prepare the reaction mix (i.e. 50% CBE concentration in reaction mix) and the concentration of glucosidase and/or rhamnosidase is shown in Tables 19 and 20. The reaction mix was heated to 35 degC for the time indicated in Tables 19 and 20, after which the reaction was quenched by addition of an equal volume of MeCN containing 2% acetic acid and shaken at room temperature for 10 mins prior to centrifugation (10 min, 4 degC) to remove particulates. Samples were analysed by UV HPLC using method of Experiment 4-4.
The change in composition of the Left, Middle and Right peaks is shown in Tables 19 and 20. The composition changes by the action of the enzymes depending on the presence or absence of the partner enzyme. The extent of reaction is proportional to the enzyme concentration and the reaction time under these conditions. The tables show data for enzyme concentrations and the reaction times providing for equivalent extents of reaction. The improvement resulting from the mutations introduced for each variant is equal to the fold change in enzyme concentration×time (i.e. fold improvement=(enzyme concentration×time) for preceding variant÷(enzyme concentration×time) for later variant). A cumulative fold improvement over the original enzyme variant is calculated by the product of the individual fold improvements.

[2] = Example 9: screening of rhamnosidase variants for derhamnosylation of saponins in crude bark extract; type: biochemical, Quillaja saponaria; details: for Cumulative FIOP from WT: estimate
Method: Libraries of genetic variants encoding mutations in the wild type Kribbella flavida rhamnosidase (SEQ ID No. 1017) were prepared using molecular biology techniques, enzymes were prepared linked to a C-terminally located His-tag. Single monoclonal colonies were grown in 400 ul of expression medium and protein expressed. Cell pellets were lysed in 200 ul of the relevant buffer (Table 17).
Lysate was diluted appropriately in the relevant buffer to allow a lysate loading of the indicated % loading (1% loading corresponds to use of 2 ul original lysate in a 200 ul reaction).
Crude bark extract (CBE) obtained by aqueous extraction of Quillaja saponaria and containing at least 2.80 mg/ml QS-21 (by HPLC-UV) was adjusted to pH 6 by dropwise addition of 2M NaOH with stirring. The relevant concentration of the relevant glucosidase was added. The appropriate relative volume of pH 6 CBE (160 ul (for 80%) or 150 ul (for 75%)) was added to each well of the reaction plate. The reaction plate was sealed and incubated at the relevant temperature and time.
The reaction plate was quenched by adding 200 uL of MeCN (2% AcOH, 1 mg/mL hexanophenone) to each well of the plates. The quenched reaction plate was re-sealed and incubated at 20 deg C. with shaking for 10 min. The reaction plate was then centrifuged (10 min, 4 degC).
200 uL was transferred from each well of the quenched plate to the corresponding wells of a fresh 96 well plate and sealed. The plate was analysed by UV HPLC with the method described in Example 4.
Three key peaks of interest are apparent using this chromatography: Left Peak (retention time approximately 2.30-2.35 min) comprising mainly QS-17 family components; Middle Peak (retention time approximately 2.37-2.42 min) comprising mainly QS-18 family components and desglucosyl-QS-17 family components; and Right Peak (retention time approximately 2.44-2.50 min) comprising mainly QS-21 family components. Peak identity was supported by MS/MS.
Enzyme activity is calculated as the % conversion of the Left Peak present in the crude bark extract: […]

[3] = rhamnosidase 0.16 mg/ml, no glucosidase, 7 h
[4] = rhamnosidase 0.31 mg/ml + glucosidase G5 0.5 mg/ml, 4 h
[5] = R5 round: 35 deg C, 18 h, lysate 0.0625% v/v, CBE 75% v/v, 100 mM Sodium acetate pH 5.8
[6] = rhamnosidase 1.25 mg/ml + glucosidase G5 0.5 mg/ml, 7 h
[7] = rhamnosidase 1.25 mg/ml, no glucosidase, 7 h
[8] = R2 round: 20 deg C, 20 h, lysate 1.25% v/v, CBE 80% v/v, 100 mM Potassium phosphate pH 6

Cumulative Fold improvement in primary enzyme loading × time [1, 3]: 31
Fold improvement in primary enzyme loading × time [1, 3]: 1.9
Cumulative Fold improvement in primary enzyme loading × time [1, 4]: 27
Fold improvement in primary enzyme loading × time [1, 4]: 1.7
Right Peak % ([2]; R5 round: 35 deg C, 18 h, lysate 0.0625% v/v, CBE 75% v/v, 100 mM Sodium acetate pH 5.8, negative control 26.23): 26.93%
Left Peak % ([2]; R5 round: 35 deg C, 18 h, lysate 0.0625% v/v, CBE 75% v/v, 100 mM Sodium acetate pH 5.8, negative control 28.76): 26.59%
Middle Peak % ([2]; R5 round: 35 deg C, 18 h, lysate 0.0625% v/v, CBE 75% v/v, 100 mM Sodium acetate pH 5.8, negative control 45.00): 46.48%
B1: Variant R5: engineered rhamnosidase polypeptide, variant of Kribbella flavida rhamnosidase SEQ ID No. 1017 (protein)
chain: MSFPAAPARLRFEHRTDPGPVLGIGTATPRLSWQVPTAPDDYRQAGYEVEIARGDAAPEQYTVDSADQVLVPWPGTPLAARESATVRVRVRGDGDWSQWSDPATVEAGLLSADDWTARFVSPRENAGHEAPAPLIGGVIDLPPDIAQARLYATAHGIYEPTLNGTRVGDEQLAPGWTAYEQRLRYQTYDVTDLVAPGENRLELLVGNGWYRGRMSFHDGHSLYGDRLAVLAQLEVTTATGEVKVLASDGTWTTRETNVLADDLYDGQHVDLRRTLGEPGPVDVLDADLSLLVAPDGPPVRVTDVLPAKAVTTSPAGKTLVDFGQNVVGRLRLRVRGGAAGDEIVLRHAEVLEDGELCVRPLRTAKATDSFVLAGPDEVTLEPTLTFHGFRYAEITGVPDLRAEDVEAVVVGSDLRRTGWFESSHPLLDRFHENVVWGMRGNFLDVPTDCPQRDERLGWTGDIQVFSPTASFLFDTAGFLTNWLADLIAEQHKDGSVPFVVPDVLRQPSPATAAWGDAATIVPWVLYERTGDAGLLARQLPSMRAWVDRMAGLAGDDLLWVGGFQFGDWLDPTAPPDDPFRAKADPDVLATAHLARSAEVVALAAEVVGAGELAREYAELAARVRQAFAAEYTTASGRVLSDAATNYALALQWALLPTEAQRKRAGERLADLVRTAGFRISTGFVGTPLMCDALADSGHPDLAYRLLLETGCPSWLYAVTMDATTVWERWDSMLPDGSINPGQMTSFNHYALGAVADWMHRRVAGLAPGDPGYRRIVVDPLFTAHLTKASARHLTPYGEAAVAWSRSGGRVRLEVTVPVGARARVAVPGESAPVEVGHGTHEWTADDVYGETPPLPADATIRQLIDHEPSWTTLAAAATRTGIVADDAELAGRLERYLDHPATELVDAVSPRGFSPSAEALHAELDSVLGR
modifications: Seq ID No. 1017 with mutations A143P, L214M, G215S, G218D, K219G, G357C, G508S, G634A, A690C, Q921H
time to complete hydrolysis of the relevant rhamnose moiety ([1]; 2 mg/ml rhamnosidase R5 solution (before mixing with glucosidase solution and CBE)): ≤ 4 h
cumulative fold improvement over WT rhamnosidase ([1]; from enzyme concentration x time for equivalent extent of reaction): approximately 30 fold
% change in Left Peak [1, 3]: −45%
% change in Middle Peak [1, 3]: 27%
% change in Right Peak [1, 3]: 106%
% Right Peak [1, 3]: 28%
% Left Peak [1, 3]: 17%
% Middle Peak [1, 3]: 56%
% change in Left Peak [1, 4]: −34%
% change in Middle Peak [1, 4]: −93%
% change in Right Peak [1, 4]: 296%
% Right Peak [1, 4]: 77%
% Left Peak [1, 4]: 20%
% Middle Peak [1, 4]: 3%
% conversion (Right peak/Left Peak) (−neg control) [2, 5]: 2.62%
Cumulative FIOP from WT [2, 5]: 28.7
% conversion (Right peak/Left Peak) ([2]; R5 round: 35 deg C, 18 h, lysate 0.0625% v/v, CBE 75% v/v, 100 mM Sodium acetate pH 5.8, negative control 47.70): 50.32%
FIOP (% area increase variant/pos control) ([2]; R5 round: 35 deg C, 18 h, lysate 0.0625% v/v, CBE 75% v/v, 100 mM Sodium acetate pH 5.8, positive control R4): 1.3

Cumulative Fold improvement in primary enzyme loading × time [1, 6]: 4
Fold improvement in primary enzyme loading × time [1, 6]: 2.0
Cumulative Fold improvement in primary enzyme loading × time [1, 7]: 4
Fold improvement in primary enzyme loading × time [1, 7]: 2.0
Left Peak % ([2]; R2 round: 20 deg C, 20 h, lysate 1.25% v/v, CBE 80% v/v, 100 mM Potassium phosphate pH 6, negative control 23.63): 22.76%
Right Peak % ([2]; R2 round: 20 deg C, 20 h, lysate 1.25% v/v, CBE 80% v/v, 100 mM Potassium phosphate pH 6, negative control 26.10): 26.27%
Middle Peak % ([2]; R2 round: 20 deg C, 20 h, lysate 1.25% v/v, CBE 80% v/v, 100 mM Potassium phosphate pH 6, negative control 50.27): 50.97%
Right Peak % ([2]; R3 round: 35 deg C, 18 h, lysate 0.4% v/v, CBE 75% v/v, 100 mM Sodium acetate pH 5.8, negative control 26.60): 27.59%
Left Peak % ([2]; R3 round: 35 deg C, 18 h, lysate 0.4% v/v, CBE 75% v/v, 100 mM Sodium acetate pH 5.8, negative control 28.91): 25.57%
Middle Peak % ([2]; R3 round: 35 deg C, 18 h, lysate 0.4% v/v, CBE 75% v/v, 100 mM Sodium acetate pH 5.8, negative control 44.49): 46.84%
B2: Variant R2: engineered rhamnosidase polypeptide, variant of Kribbella flavida rhamnosidase SEQ ID No. 1017 (protein)
chain: B1 chain with S215G, D218G, C357G, S508G, A634G, C690A
modifications: Seq ID No. 1017 with mutations A143P, L214M, K219G, Q921H
% change in Left Peak [1, 6]: −40%
% change in Middle Peak [1, 6]: −96%
% change in Right Peak [1, 6]: 309%
% Right Peak [1, 6]: 80%
% Left Peak [1, 6]: 18%
% Middle Peak [1, 6]: 2%
% change in Left Peak [1, 7]: −39%
% change in Middle Peak [1, 7]: 19%
% change in Right Peak [1, 7]: 113%
% Right Peak [1, 7]: 29%
% Left Peak [1, 7]: 18%
% Middle Peak [1, 7]: 52%
% conversion (Right peak/Left Peak) (−neg control) [2, 8]: 1.09%
Cumulative FIOP from WT [2, 8]: 2.9
% conversion (Right peak/Left Peak) ([2]; R2 round: 20 deg C, 20 h, lysate 1.25% v/v, CBE 80% v/v, 100 mM Potassium phosphate pH 6, negative control 52.49): 53.57%
FIOP (% area increase variant/pos control) ([2]; R2 round: 20 deg C, 20 h, lysate 1.25% v/v, CBE 80% v/v, 100 mM Potassium phosphate pH 6, positive control WT): 2.9
% conversion (Right peak/Left Peak) (−neg control) ([2]; R3 round: 35 deg C, 18 h, lysate 0.4% v/v, CBE 75% v/v, 100 mM Sodium acetate pH 5.8): 3.99%
% conversion (Right peak/Left Peak) ([2]; R3 round: 35 deg C, 18 h, lysate 0.4% v/v, CBE 75% v/v, 100 mM Sodium acetate pH 5.8, negative control 47.91): 51.90%
